# Laboratory results reported in article PMC10115800, “Two assembly modes for SIN3 histone deacetylase complexes” (Cell Discovery, 2023).
# T1: Pst3 with C-terminal 3× Flag-tag (S. pombe, UniProt O74755 1-1154)
# T1 construct: Pst3, Sin3 homolog of S. pombe, subunit of the SIN3L complex; PAH3, HID and HCR are resolved in the model; Endogenous protein; also called Pst3-Flag; Sin3 isoform Pst3; source: endogenous locus tagged, S. pombe; purified (ANTI-FLAG M2 resin, glycerol gradient); not shown: 3× Flag, C-terminal, kept
# T1 sequence (looked up): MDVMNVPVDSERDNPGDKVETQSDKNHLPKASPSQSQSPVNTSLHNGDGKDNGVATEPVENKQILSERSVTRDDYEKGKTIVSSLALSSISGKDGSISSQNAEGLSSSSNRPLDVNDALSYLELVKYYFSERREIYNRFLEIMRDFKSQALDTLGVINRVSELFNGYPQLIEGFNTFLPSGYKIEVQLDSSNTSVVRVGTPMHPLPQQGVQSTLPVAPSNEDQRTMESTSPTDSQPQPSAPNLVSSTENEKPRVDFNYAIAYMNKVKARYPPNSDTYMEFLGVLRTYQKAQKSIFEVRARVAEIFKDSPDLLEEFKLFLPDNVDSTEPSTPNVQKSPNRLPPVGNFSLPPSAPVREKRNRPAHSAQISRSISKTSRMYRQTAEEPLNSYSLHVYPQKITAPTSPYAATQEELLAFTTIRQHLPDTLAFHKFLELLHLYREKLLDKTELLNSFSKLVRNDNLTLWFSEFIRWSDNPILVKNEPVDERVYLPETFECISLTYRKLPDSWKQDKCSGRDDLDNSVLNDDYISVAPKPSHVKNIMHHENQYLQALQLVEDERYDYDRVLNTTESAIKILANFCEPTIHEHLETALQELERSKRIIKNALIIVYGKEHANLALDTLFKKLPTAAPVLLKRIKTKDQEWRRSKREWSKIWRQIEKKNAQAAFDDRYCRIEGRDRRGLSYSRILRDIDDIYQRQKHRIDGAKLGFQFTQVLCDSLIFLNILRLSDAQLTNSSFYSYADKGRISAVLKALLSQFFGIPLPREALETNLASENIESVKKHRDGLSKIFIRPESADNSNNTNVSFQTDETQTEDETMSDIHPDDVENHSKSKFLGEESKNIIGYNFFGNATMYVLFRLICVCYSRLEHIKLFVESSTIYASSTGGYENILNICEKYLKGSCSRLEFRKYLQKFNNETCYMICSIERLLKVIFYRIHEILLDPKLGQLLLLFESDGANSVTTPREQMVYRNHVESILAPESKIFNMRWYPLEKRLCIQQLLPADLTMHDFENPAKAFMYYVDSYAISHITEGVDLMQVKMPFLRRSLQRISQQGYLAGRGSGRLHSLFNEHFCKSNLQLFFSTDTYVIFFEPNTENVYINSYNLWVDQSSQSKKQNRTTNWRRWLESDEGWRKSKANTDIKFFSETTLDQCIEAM
# T2: Pst2 with C-terminal 3× Flag-tag (S. pombe, UniProt O13919 1-1075)
# T2 construct: Pst2, Sin3 homolog of S. pombe, organising subunit of the SIN3S complex; all five domains (PAH1/2/3, HID, HCR) are resolved; also called Pst2-Flag; Sin3 isoform Pst2; source: endogenous locus tagged, S. pombe; purified (ANTI-FLAG M2 resin, glycerol gradient); not shown: 3× Flag, C-terminal, kept
# T2 sequence (looked up): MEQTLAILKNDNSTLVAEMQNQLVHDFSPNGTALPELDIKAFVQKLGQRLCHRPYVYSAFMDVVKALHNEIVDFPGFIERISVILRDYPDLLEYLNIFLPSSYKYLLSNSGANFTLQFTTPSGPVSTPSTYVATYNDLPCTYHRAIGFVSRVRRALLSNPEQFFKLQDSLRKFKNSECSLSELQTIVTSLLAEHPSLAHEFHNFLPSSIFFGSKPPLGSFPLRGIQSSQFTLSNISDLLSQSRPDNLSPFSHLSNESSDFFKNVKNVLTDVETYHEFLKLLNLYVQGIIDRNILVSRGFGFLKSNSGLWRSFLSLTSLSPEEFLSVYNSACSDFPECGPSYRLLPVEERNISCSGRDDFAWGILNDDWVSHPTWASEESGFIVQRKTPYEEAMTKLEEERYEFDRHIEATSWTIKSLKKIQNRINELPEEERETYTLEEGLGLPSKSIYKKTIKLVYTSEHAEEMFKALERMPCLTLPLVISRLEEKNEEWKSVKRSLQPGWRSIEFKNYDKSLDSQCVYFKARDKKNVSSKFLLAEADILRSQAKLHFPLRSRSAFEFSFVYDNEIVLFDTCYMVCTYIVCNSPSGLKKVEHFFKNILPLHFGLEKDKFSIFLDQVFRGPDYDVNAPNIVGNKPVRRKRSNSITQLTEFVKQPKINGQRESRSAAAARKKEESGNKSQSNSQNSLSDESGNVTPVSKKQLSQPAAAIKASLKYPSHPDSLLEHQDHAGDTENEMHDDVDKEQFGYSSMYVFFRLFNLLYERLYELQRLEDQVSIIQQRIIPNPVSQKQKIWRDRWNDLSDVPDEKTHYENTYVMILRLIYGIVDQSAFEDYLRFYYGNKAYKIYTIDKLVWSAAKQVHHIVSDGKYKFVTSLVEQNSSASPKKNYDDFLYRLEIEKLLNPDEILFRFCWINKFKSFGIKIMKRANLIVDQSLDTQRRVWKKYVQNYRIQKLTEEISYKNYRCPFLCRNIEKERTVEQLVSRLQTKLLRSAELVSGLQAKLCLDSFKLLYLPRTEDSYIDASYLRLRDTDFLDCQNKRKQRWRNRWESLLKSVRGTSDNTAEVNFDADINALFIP
# B1: WD40 domain-containing protein Prw1 (natural protein, S. pombe, UniProt O14021 1-431, looked up)
# chain: MAVSAVPHPSKQAQASEEGINQEKCINEEYKIWKKNSPFLYDLIITRALEWPCMSLQWYPEQQIFAEHGYTEQKMFLGVRADVGKYLLAVASIQLPYLNQTVPPTTMEGASAGDESSLRVNISNLYSHPESVCSAKLMPQDDSCVATVGNYHNDVLVFDKESFESYSSASESPLKPKYRLTKHTQPCTSVCWNFLSKGTLVSGSQDATLSCWDLNAYNESDSASVLKVHISSHEKQVSDVRFHYKHQDLLASVSYDQYLHVHDIRRPDASTKPARSVHAHSGPIHSVAFNPHNDFILATCSTDKTIALWDLRNLNQRLHTLEGHEDIVTKISFSPHEEPILASTSADRRTLVWDLSRIGEDQPAEEAQDGPPELLFMHGGHTSCTIDMDWCPNYNWTMATAAEDNILQIWTPSRSIWGNEQLEEDATAYLS
# notes: Prw1 of S. pombe, homolog of S. cerevisiae Ume1 and human RBBP4/7; N-terminal NEE box and C-terminal WD40 domain; two copies in SIN3L (Prw1, Prw1’), one in SIN3S; Endogenous protein; source: endogenous, S. pombe; co-purified with Pst3-3×Flag or Pst2-3×Flag (ANTI-FLAG M2 resin, glycerol gradient)
# How the values were obtained:
# Conditions in all cases: both partners purified
# [1] = molecular target: B1; assay: cryo-EM structure; endogenous SIN3L complex purified from the Pst3-3×Flag S. pombe strain, cross-linked with 1 mM BS3; 20 mM HEPES pH 7.4, 50 mM NaCl, 2 mM DTT; 3.2 Å
# [2] = molecular target: T1, Pst3 with C-terminal 3× Flag-tag; assay: as above
# Pst1 = molecular target: T3, Pst1 (S. pombe, UniProt Q09750 1-1522); assay: as above
# T3 construct: Pst1, Sin3 homolog of S. pombe, endogenous subunit of the SIN3L complex; PAH3, HID and HCR are resolved in the model; Endogenous protein, untagged in the Pst3-Flag strain; only part of it is modelled in PDB 8I03; also called Sin3 isoform Pst1; Sin3 homolog Pst1; source: endogenous, S. pombe; co-purified with Pst3-3×Flag (ANTI-FLAG M2 resin, glycerol gradient)
# [3] = molecular target: T2, Pst2 with C-terminal 3× Flag-tag; assay: cryo-EM structure; endogenous SIN3S complex purified from the Pst2-3×Flag S. pombe strain, cross-linked with 1 mM BS3; 20 mM HEPES pH 7.4, 50 mM NaCl, 2 mM DTT; 2.9 Å
# T3 sequence (Q09750 whole entry, canonical isoform): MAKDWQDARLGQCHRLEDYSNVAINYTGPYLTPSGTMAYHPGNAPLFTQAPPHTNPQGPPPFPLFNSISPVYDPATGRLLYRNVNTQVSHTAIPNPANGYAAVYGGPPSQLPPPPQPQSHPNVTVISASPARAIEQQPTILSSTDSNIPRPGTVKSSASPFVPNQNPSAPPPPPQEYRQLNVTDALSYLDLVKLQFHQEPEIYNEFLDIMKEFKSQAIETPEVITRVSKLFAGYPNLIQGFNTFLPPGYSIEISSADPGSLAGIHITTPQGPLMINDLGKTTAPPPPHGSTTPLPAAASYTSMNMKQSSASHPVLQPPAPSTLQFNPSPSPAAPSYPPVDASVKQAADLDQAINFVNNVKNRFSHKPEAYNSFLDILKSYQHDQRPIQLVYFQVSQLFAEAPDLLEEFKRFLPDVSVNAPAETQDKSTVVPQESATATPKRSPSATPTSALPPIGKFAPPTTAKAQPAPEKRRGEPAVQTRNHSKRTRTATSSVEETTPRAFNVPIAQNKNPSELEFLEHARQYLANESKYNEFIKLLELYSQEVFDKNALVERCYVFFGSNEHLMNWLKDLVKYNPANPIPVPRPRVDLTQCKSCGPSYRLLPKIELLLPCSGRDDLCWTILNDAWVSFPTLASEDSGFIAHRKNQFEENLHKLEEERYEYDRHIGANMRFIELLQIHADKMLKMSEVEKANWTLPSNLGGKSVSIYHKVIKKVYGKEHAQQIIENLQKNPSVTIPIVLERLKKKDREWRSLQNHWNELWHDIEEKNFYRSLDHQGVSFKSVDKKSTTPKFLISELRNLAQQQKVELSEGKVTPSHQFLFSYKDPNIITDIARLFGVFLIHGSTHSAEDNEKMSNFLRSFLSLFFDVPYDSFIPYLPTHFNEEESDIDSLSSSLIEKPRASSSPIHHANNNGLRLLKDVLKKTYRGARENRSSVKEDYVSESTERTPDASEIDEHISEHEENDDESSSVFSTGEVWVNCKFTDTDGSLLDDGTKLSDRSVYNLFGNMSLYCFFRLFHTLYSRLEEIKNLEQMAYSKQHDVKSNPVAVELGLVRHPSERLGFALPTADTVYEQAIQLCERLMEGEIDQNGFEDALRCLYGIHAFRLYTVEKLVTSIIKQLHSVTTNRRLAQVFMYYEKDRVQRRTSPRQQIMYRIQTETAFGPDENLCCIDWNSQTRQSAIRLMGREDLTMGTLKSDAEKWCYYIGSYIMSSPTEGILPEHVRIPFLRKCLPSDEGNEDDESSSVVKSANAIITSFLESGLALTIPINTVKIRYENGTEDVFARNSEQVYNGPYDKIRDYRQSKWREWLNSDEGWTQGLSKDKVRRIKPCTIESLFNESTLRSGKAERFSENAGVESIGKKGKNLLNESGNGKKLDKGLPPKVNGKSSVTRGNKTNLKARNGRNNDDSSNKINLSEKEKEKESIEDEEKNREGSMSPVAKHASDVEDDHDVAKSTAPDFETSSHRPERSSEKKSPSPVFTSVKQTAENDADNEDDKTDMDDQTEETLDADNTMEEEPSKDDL
binding result [1],binding result [2],binding result (Pst1),binding result [3],Binder
binds,binds,,,"Rxt3 (natural protein, S. pombe, UniProt O94707 1-351, looked up, Rxt3 of S. pombe, subunit of the Pst3 Lobe of the SIN3L complex; Endogenous protein; source: endogenous, S. pombe; co-purified with Pst3-3×Flag (ANTI-FLAG M2 resin, glycerol gradient)) MEEKTPENEQSKKTFDPKDSMKIEETSTNGSSQPSQPSNIKLSIGSILESSNDNGDPEYSENGMGNMNMNTLPMATSTPMSYTKQPSEAKYPNSVWERKGVSDQEENTSSVKRQKTLPTQSSGEEEAKYSHPGAPTATSADSISMESRPSNLSTSLSKTTSYPQFQVRQFVSPIISIDNSALEPFLNRYPASESLFPVTEYEYTPWLEFPLLYSSIGKFVRVTIDIKWLNAAINPRLCRREIWGTDVYTDDSDIATILAHCGCFSLLKPVRKIAVVDLYILPPLVHYKGTRKNQIESRSWSSRQDGISLKIKEVTWKPACASIFENSIHTLTLEERLQARLELSRSSTFKI"
,binds,binds,binds,B1
,binds,binds,binds,"histone deacetylase Clr6 (enzyme, S. pombe, UniProt O59702 1-405, looked up, Clr6, zinc-dependent class I histone deacetylase of S. pombe; two copies in SIN3L (Clr6, Clr6’), one in SIN3S; Endogenous protein; source: endogenous, S. pombe; co-purified with Pst3-3×Flag or Pst2-3×Flag (ANTI-FLAG M2 resin, glycerol gradient)) MGFGKKKVSYFYDEDVGNYHYGPQHPMKPHRVRMVHNLVVNYNLYEKLNVITPVRATRNDMTRCHTDEYIEFLWRVTPDTMEKFQPHQLKFNVGDDCPVFDGLYEFCSISAGGSIGAAQELNSGNAEIAINWAGGLHHAKKREASGFCYVNDIALAALELLKYHQRVLYIDIDVHHGDGVEEFFYTTDRVMTCSFHKFGEYFPGTGHIKDTGIGTGKNYAVNVPLRDGIDDESYESVFKPVISHIMQWFRPEAVILQCGTDSLAGDRLGCFNLSMKGHSMCVDFVKSFNLPMICVGGGGYTVRNVARVWTYETGLLAGEELDENLPYNDYLQYYGPDYKLNVLSNNMENHNTRQYLDSITSEIIENLRNLSFAPSVQMHKTPGDFTFENAEKQNIAKEEIMDERV"
